The target of assay [1] is proteasome in bovine aortic endothelial (BAE) cells (bovine). As to the kind of experiment: cell-based or functional assay.
Assay [2] has the same target. The assay can be described thus: cell-based or functional assay. This is another data set of the same source.

Primed or numbered codes have the meaning given here. [ ]: non-standard residue; d: D form. α′‑methyl‑α′,β′‑epoxide = C-terminal α′-methyl-α′,β′-epoxyketone; hPhe = N[C@@H](CCc1ccccc1)C(=O)O; Nle = CCCC[C@H](N)C(=O)O

Consider Ac-GPFL-{α′‑methyl‑α′,β′‑epoxide} [Ac-GPFL-Ex], for which the “IC50, inhibition of BAE cell proliferation” value in assay [1] stood at 58000 nM.
Take Ac-[hPhe]LFL-{α′‑methyl‑α′,β′‑epoxide} [compound 16]: the “IC50, inhibition of BAE cell proliferation ([methyl-3H]-thymidine incorporation)” value in assay [2] amounted to 20 nM.
As to Ac-ALLL-{α′‑methyl‑α′,β′‑epoxide} [Ac-ALLL-epoxide], the “IC50, inhibition of BAE cell proliferation ([methyl-3H]-thymidine incorporation)” value in assay [2] came to 83 nM.
Ac-LFLL-{α′‑methyl‑α′,β′‑epoxide} [Ac-LFLL-epoxide]: the “IC50, inhibition of BAE cell proliferation ([methyl-3H]-thymidine incorporation)” value in assay [2] was found to be 16 nM.
isooctanoyl-Pro-Phe-Leu-{α′,β′‑epoxide with α′‑methyl (epoxyketone)} (also: C-terminal Leu as α′,β′-epoxyketone (epoxide) with α′-methyl substituent) [Isooctanioc-PFL-Ex]: the “IC50, inhibition of BAE cell proliferation” value in assay [1] is 600 nM.
Take Ac-[Nle]PFL-{α′‑methyl‑α′,β′‑epoxide} [Ac-NorLPFL-Ex]: the “IC50, inhibition of BAE cell proliferation” value in assay [1] amounted to 53000 nM.
In the case of pyrazinecarbonyl-Pro-Phe-Leu-{α′,β′‑epoxide with α′‑methyl (epoxyketone)} (also: C-terminal Leu as α′,β′-epoxyketone (epoxide) with α′-methyl substituent) [Pyrazinecarbonyl-PFL-Ex], in assay [1], the “IC50, inhibition of BAE cell proliferation” value amounted to 400 nM.
Ac-LLFL-{α′‑methyl‑α′,β′‑epoxide} [Ac-LLFL-epoxide]: the “IC50, inhibition of BAE cell proliferation ([methyl-3H]-thymidine incorporation)” value in assay [2] came to 7 nM.
Turning to Ac-LLAL-{α′‑methyl‑α′,β′‑epoxide} [Ac-LLAL-epoxide], the “IC50, inhibition of BAE cell proliferation ([methyl-3H]-thymidine incorporation)” value in assay [2] came to 34 nM.
Same read-out and setting: the result for Ac-LALL-{α′‑methyl‑α′,β′‑epoxide} [Ac-LALL-epoxide] reads 700 nM.
As to {N‑dimethylaminobenzoyl}-Pro-Phe-Leu-{α′,β′‑epoxide with α′‑methyl (epoxyketone)} (also: C-terminal Leu as α′,β′-epoxyketone (epoxide) with α′-methyl substituent) [N-dimethylaminobenzoyl-PFL-EX], the “IC50, inhibition of BAE cell proliferation” value in assay [1] is 400 nM.

(Values after patent US20040266664A1 (YALE UNIVERSITY, published 2004).)
